# Results taken from article PMC8141872 (The Journal of Biological Chemistry, 2021).
# B1: Ras suppressor-1 (Rsu-1), wild type, full length (natural protein, human, UniProt Q15404 1-277, looked up)
# chain: MSKSLKKLVEESREKNQPEVDMSDRGISNMLDVNGLFTLSHITQLVLSHNKLTMVPPNIAELKNLEVLNFFNNQIEELPTQISSLQKLKHLNLGMNRLNTLPRGFGSLPALEVLDLTYNNLSENSLPGNFFYLTTLRALYLSDNDFEILPPDIGKLTKLQILSLRDNDLISLPKEIGELTQLKELHIQGNRLTVLPPELGNLDLTGQKQVFKAENNPWVTPIADQFQLGVSHVFEYIRSETYKYLYGRHMQANPEPPKKNNDKSKKISRKPLAAKNR
# notes: after thrombin cleavage a few of its residues probably remain (surmised); also called Rsu-1 (WT); Rsu-1 WT; not shown: His6, N-terminal, cleaved
# B2: GST-fused PINCH-2 LIM5S domain (residues 254-330) (domain or fragment, human, UniProt Q7Z4I7 254-330, looked up)
# chain: GDVCYNCSHVIEGDVVSALNKAWCVSCFSCSTCNSKLTLKNKFVEFDMKPVCKRCYEKFPLELKKRLKKLSELTSRK
# notes: human PINCH-2 LIM5 domain without the C-terminal 11 residues, residues 254-330; Cloned in pGEX4T1; held on the anti-GST biosensor; also called PINCH-2 LIM5S domain (WT); PINCH-2 LIM5 short domain; source: E. coli Rosetta 2 (DE3), purified (GSTrap)
# B3: Integrin-linked kinase (ILK, residues 1-452), as subunit of the IPP complex (natural protein, human, UniProt Q13418 1-452, looked up)
# chain: MDDIFTQCREGNAVAVRLWLDNTENDLNQGDDHGFSPLHWACREGRSAVVEMLIMRGARINVMNRGDDTPLHLAASHGHRDIVQKLLQYKADINAVNEHGNVPLHYACFWGQDQVAEDLVANGALVSICNKYGEMPVDKAKAPLRELLRERAEKMGQNLNRIPYKDTFWKGTTRTRPRNGTLNKHSGIDFKQLNFLTKLNENHSGELWKGRWQGNDIVVKVLKVRDWSTRKSRDFNEECPRLRIFSHPNVLPVLGACQSPPAPHPTLITHWMPYGSLYNVLHEGTNFVVDQSQAVKFALDMARGMAFLHTLEPLIPRHALNSRSVMIDEDMTARISMADVKFSFQCPGRMYAPAWVAPEALQKKPEDTNRRSADMWSFAVLLWELVTREVPFADLSNMEIGMKVALEGLRPTIPPGISPHVCKLMKICMNEDPAKRPKFDMIVPILEKMQDK
# notes: human integrin-linked kinase (ILK), residues 1-452; Stood in the assay within the IPP complex; source: E. coli, co-expressed with PINCH-1 and α-parvin, purified as the IPP complex
# What was measured:
# Conditions in all cases: both partners purified
# [1] = biological target: T1, PINCH-1 (residues 1-325), as subunit of the IPP complex (human, UniProt P48059 1-325); assay: SEC; Superose 6 10/300 GL; purified IPP heterotrimer mixed with purified Kindlin-2 and Rsu-1, 4 °C at least 2 h; 20 mM Tris pH 7.5, 150 mM NaCl, 5% glycerol, 0.2 mM TCEP; peak reloaded on the same column
# T1 construct: human PINCH-1, residues 1-325; Stood in the assay within the IPP complex; source: E. coli, co-expressed with ILK and α-parvin, purified as the IPP complex
# [2] = biological target: B1; assay: BLI; BLItz; GST-fused PINCH protein or GST (0.05 mg/ml) loaded on anti-GST biosensor, Rsu-1 WT or mutant in the mobile phase; 20 mM Tris pH 7.5, 150 mM NaCl, 1 mg/ml BSA, 0.05% Tween-20; 1:1 global fit; at least three measurements
# [3] = biological target: T2, Kindlin-2 (residues 1-680) (human, UniProt Q96AC1 1-680); assay: SEC; Superose 6 10/300 GL; purified IPP heterotrimer mixed with purified Kindlin-2 and Rsu-1, 4 °C at least 2 h; 20 mM Tris pH 7.5, 150 mM NaCl, 5% glycerol, 0.2 mM TCEP; peak reloaded on the same column
# T2 construct: human kindlin-2, residues 1-680; source: SUMO-tag cleaved by Ulp1
# T2 sequence (looked up): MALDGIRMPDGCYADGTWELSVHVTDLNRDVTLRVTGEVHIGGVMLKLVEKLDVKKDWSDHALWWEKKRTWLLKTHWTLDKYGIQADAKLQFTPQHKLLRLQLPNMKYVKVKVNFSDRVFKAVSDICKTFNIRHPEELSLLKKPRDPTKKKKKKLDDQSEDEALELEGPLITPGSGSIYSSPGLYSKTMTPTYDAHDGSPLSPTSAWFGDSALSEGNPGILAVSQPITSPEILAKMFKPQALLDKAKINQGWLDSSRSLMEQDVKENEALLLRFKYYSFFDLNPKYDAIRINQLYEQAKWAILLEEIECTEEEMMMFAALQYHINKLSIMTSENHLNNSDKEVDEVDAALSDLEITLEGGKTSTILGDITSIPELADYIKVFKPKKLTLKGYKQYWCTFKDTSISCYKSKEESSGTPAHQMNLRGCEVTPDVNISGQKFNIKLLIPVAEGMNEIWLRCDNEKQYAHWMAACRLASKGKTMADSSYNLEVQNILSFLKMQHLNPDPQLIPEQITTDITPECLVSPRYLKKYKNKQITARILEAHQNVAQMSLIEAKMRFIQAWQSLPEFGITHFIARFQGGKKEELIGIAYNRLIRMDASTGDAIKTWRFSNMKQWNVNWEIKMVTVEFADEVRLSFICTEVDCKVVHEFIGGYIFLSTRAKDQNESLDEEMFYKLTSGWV
# T1 sequence (P48059 whole entry, the tested form may be a part, one chain of several): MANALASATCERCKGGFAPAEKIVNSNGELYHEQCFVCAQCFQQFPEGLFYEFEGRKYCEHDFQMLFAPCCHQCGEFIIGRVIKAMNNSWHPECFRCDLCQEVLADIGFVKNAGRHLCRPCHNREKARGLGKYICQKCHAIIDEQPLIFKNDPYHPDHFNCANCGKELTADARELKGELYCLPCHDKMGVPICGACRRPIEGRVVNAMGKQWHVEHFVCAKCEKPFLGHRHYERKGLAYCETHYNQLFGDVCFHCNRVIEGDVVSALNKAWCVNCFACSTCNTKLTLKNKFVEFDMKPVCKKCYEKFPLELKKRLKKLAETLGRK
binder,measurement,setting,value
B1,binding result,[1],binds
B2,Kd,[2],925 ± 194 nM
B3,binding result,[3],binds
